Test results taken from article PMC6868437.

Legend:
Experiment in all cases: pull-down
[1] = target: rps3-R116D fused to GST (yeast (S. cerevisiae)) (UniProt P05750)
[2] = target: GST-Rps3, wt (yeast (S. cerevisiae)) (UniProt P05750)
[3] = target: GST-a/tif32-CTD-box32 (yeast (S. cerevisiae)) (UniProt P38249)
[4] = target: GST-a/tif32-CTD-box33 (yeast (S. cerevisiae)) (UniProt P38249)

Molecule	reduction of binding against GST-Rps3 wt [1] [%]	reduction of binding against wt full-length a/Tif32 [1] [%]	reduction of binding against wt full-length a/Tif32 [2] [%]	reduction of binding against the wt a/Tif32-CTD [3] [%]	reduction of binding against the wt a/Tif32-CTD [4] [%]
[35S]-labelled full-length a/Tif32 with box32 (from UniProt P38249 1-964) (natural protein)	35	50	50		
[35S]-labelled uS3/Rps3, wt (natural protein, [35S]-labelled) MVALISKKRKLVADGVFYAELNEFFTRELAEEGYSGVEVRVTPTKTEVIIRATRTQDVLGENGRRINELTLLVQKRFKYAPGTIVLYAERVQDRGLSAVAQAESMKFKLLNGLAIRRAAYGVVRYVMESGAKGCEVVVSGKLRAARAKAMKFADGFLIHSGQPVNDFIDTATRHVLMRQGVLGIKVKIMRDPAKSRTGPKALPDAVTIIEPKEEEPILAPSVKDYRPAEETEAQAEPVEA				80	80
